Experimental data published in paper doi:10.1101/2025.01.13.632879.

Assays:
Assay in all cases: SEC
[1] = molecular target: Clostridioides difficile GerS N74L, His6-tagged (Clostridioides difficile)
[2] = molecular target: GerS ortholog from Paraclostridium sordellii, His6-tagged (Paraclostridium sordellii)
[3] = molecular target: Clostridioides difficile GerS, His6-tagged (wild type) (Clostridioides difficile)
[4] = molecular target: Clostridioides difficile GerS K71R, His6-tagged (Clostridioides difficile)
[5] = molecular target: GerS ortholog from Paraclostridium bifermentans, His6-tagged (Paraclostridium bifermentans)
[6] = molecular target: Clostridioides difficile GerS T72P, His6-tagged (Clostridioides difficile)

Clostridioides difficile GerS N74L, His6-tagged (natural protein)
stoichiometry N [1]: 2

GerS ortholog from Paraclostridium sordellii, His6-tagged (natural protein)
stoichiometry N [2]: 2

Clostridioides difficile GerS, His6-tagged (wild type) (natural protein)
stoichiometry N [3]: 2

Clostridioides difficile GerS K71R, His6-tagged (natural protein)
stoichiometry N [4]: 2

GerS ortholog from Paraclostridium bifermentans, His6-tagged (natural protein)
stoichiometry N [5]: 2

Clostridioides difficile GerS T72P, His6-tagged (natural protein)
stoichiometry N [6]: 2
